This passage reports Kd results from publication PMC5640506 (2017).

The Kd is the concentration at which binding is half-saturated. A low value points to tighter binding.

For experiment [1], the target named is T1, K11-linked diUb (UniProt P0CG47 1-76, K11-linked: one Ub is ubiquitinated on the side chain of K11). Description: ITC. (In general: ITC needs no label: the signal is the heat of the interaction.)
A further experiment concerns the target K6-linked diUb (UniProt P0CG47 1-76, K6-linked: one Ub is ubiquitinated on the side chain of K6). Put plainly: MST.
The target of the next experiment is K48 diUb (Homo sapiens). Put plainly: MST.
The target of a further experiment is K29 diUb (Homo sapiens). Put plainly: MST.
Another experiment concerns the target K63 diUb (Homo sapiens). Description: MST.
Experiment [2] has as its target T1, K11-linked diUb. Description: MST.
A further experiment deals with K33-linked diUb (UniProt P0CG47 1-76, K33-linked: one Ub is ubiquitinated on the side chain of K33). Description: MST.

B1: K33 affimer (designed binder)
chain: MSAATGVRAVPGNENSLEIEELARFAVDEHNKKENALLEFVRVVKAKEQIWEMDASKETMYYLTLEAKDGGKKKLYEAKVWVKMTHWIGAMNNFKELQEFKPVGDAAAAHHHHHHG
For the molecule B1, in the experiment with K11-linked diUb [1], the affinity, expressed as Kd, was 0.007 µM.

B2: dimerized K33/K11 affimer, fluorescently labelled (designed binder)
chain: ENSLEIEELARFAVDEHNKKENALLEFVRVVKAKEQIWEMDASKETMYYLTLEAKDGGKKKLYEAKVWVKMTHWIGAMNNFKELQEFKPVENSLEIEELARFAVDEHNKKENALLEFVRVVKAKEQIWEMDASKETMYYLTLEAKDGGKKKLYEAKVWVKMTHWIGAMNNFKELQEFKPV
modifications: Alexa488-maleimide or NT-647-maleimide on a single cysteine
For the molecule B2, the Kd turned out to be 210 µM with K6-linked diUb, 120 µM with K48 diUb, 61 µM in the experiment with K29 diUb and 83 µM in the experiment with K63 diUb.

B3: dimerized K6 affimer, fluorescently labelled (designed binder)
chain: ENSLEIEELARFAVDEHNKKENALLEFVRVVKAKEQSWKDDELFDTMYYLTLEAKDGGKKKLYEAKVWVKASGIVMYQMNFKELQEFKPVENSLEIEELARFAVDEHNKKENALLEFVRVVKAKEQSWKDDELFDTMYYLTLEAKDGGKKKLYEAKVWVKASGIVMYQMNFKELQEFKPV
modifications: Alexa488-maleimide or NT-647-maleimide on a single cysteine
Consider B3, for which the dissociation constant (Kd) is 49 µM in the experiment with K11-linked diUb [2]; 82 µM in the experiment with K48 diUb; 55 µM with K29 diUb; 120 µM with K33-linked diUb; 130 µM in the experiment with K63 diUb.
